Here are results for seven molecules from US20230158141A1 (YAFEI SHANGHAI BIOLOG MEDICINE SCIENCE AND TECHNOLOGY, published 2023).

Residue numbers refer to the chain shown, from its start. Names may count otherwise.

One experiment deals with mouse CTLA-4 protein (mouse, UniProt P09793 36-162, limits assumed). The experiment in a line: ELISA, TMEAbody against WT 9D9.
The next experiment deals with T1, IL2Rβ-Fc (UniProt P14784 27-239, limits assumed).
T1 construct: also called IL2Rb; not shown: Fc part, not described
T1 sequence (looked up): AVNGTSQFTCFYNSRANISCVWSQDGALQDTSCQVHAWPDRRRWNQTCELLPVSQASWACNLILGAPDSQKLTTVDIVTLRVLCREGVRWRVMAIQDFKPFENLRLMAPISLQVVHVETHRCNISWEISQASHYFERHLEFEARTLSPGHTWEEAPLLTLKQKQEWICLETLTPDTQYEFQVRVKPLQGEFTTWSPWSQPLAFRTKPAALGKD
The experiment in a line: ELISA, against wild type IL2. For orientation: ELISA stands for enzyme-linked immunosorbent assay.

Experiment [1] deals with PD-1 (UniProt Q15116 25-167, limits assumed). The experiment can be described thus: ELISA, OD mutant/OD WT; ↓=less than 70%.
Experiment [2] concerns the target T2, PD-1 (UniProt Q15116 25-167, limits assumed).
T2 construct: also called PD-1 antigen
The experiment can be described thus: ELISA, EC50 fold change; S47 on the Cys.

Another experiment has as its target His tagged VEGF protein (UniProt P15692-4 27-191, limits assumed). The experiment can be described thus: ELISA, His tagged VEGF protein.
In the next experiment the target is T3, mouse PD-1 protein (mouse, UniProt Q02242 25-167, limits assumed).
T3 sequence (looked up): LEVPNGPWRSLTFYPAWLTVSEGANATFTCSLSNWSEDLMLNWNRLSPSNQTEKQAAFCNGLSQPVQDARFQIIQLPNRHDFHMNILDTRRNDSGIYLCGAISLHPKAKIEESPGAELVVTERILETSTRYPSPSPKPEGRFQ
The experiment in a line: ELISA, TMEAbody against WT J43v2.

Experiment [3] concerns the target T4, human Fc tagged PD-1 protein (Sino Biological) (human, UniProt Q15116 25-167).
T4 construct: bought; also called Fc tagged human PD-1 protein
The experiment can be described thus: ELISA, EC50 fold change; S47 on the Cys.

T4 sequence (Q15116 25-167 limits assumed): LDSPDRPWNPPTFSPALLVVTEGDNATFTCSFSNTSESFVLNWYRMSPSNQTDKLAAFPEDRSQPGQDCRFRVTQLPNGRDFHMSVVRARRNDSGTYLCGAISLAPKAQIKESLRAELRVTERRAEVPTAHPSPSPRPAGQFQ
Sequence of His tagged VEGF protein (P15692 other isoform, or with tags, fused parts or gaps limits assumed): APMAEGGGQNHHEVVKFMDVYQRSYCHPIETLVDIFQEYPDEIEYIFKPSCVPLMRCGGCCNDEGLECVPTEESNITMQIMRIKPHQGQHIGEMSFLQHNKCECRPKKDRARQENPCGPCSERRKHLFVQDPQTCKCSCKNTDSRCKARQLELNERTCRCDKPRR

B1: 9D9 TMEAbody (anti-mouse CTLA-4 antibody 9D9, Tyr54 on LC) (antibody, mouse IgG2b, kappa)
heavy: EAKLQESGPVLVKPGASVKMSCKASGYTFTDYYMNWVKQSHGKSLEWIGVINPYNGDTSYNQKFKGKATLTVDKSSSTAYMELNSLTSEDSAVYYCARYYGSWFAYWGQGTLITVSTAKTTPPSVYPLAPGCGDTTGSSVTLGCLVKGYFPESVTVTWNSGSLSSSVHTFPALLQSGLYTMSSSVTVPSSTWPSQTVTCSVAHPASSTTVDKKLEPSGPISTINPCPPCKECHKCPAPNLEGGPSVFIFPPNIKDVLMISLTPKVTCVVVDVSEDDPDVQISWFVNNVEVHTAQTQTHREDYNSTIRVVSTLPIQHQDWMSGKEFKCKVNNKDLPSPIERTISKIKGLVRAPQVYILPPPAEQLSRKDVSLTCLVVGFNPGDISVEWTSNGHTEENYKDTAPVLDSDGSYFIYSKLNMKTSKWEKTDSFSCNVRHEGLKNYYLKKTISRSPGK
light: DIVMTQTTLSLPVSLGDQASISCRSSQSIVHSNGNTYLEWYLQKPGQSPKLLICKVSNRFSGVPDRFSGSGSGTDFTLKISRVEAEDLGVYYCFQGSHVPYTFGGGTKLEIKRADAAPTVSIFPPSSEQLTSGGASVVCFLNNFYPKDINVKWKIDGSERQNGVLNSWTDQDSKDSTYSMSSTLTLTKDEYERHNSYTCEATHKTSTSPIVKSFNRNEC
modifications: functional moiety on Cys 54 (which R1-R2-R3-R4 is not stated)
notes: mIgG2b isotype
Turning to B1, the “blocking efficiency (fold)” value with mouse CTLA-4 protein worked out at 26 fold.

B2: chemically modified IL2 Arg38Asp/Glu61Arg with Lys9 and Lys76 conjugated with R4-7 (other)
chain: APASSTKCTQLQLEHLLLDLQMILNGINNYKNPKLTDMLTFKFYMPKKATELKHLQCLERELKPLEEVLNLAQSCNFHLRPRDLISNINVIVLELKGSETTFMCEYADETATIVEFLNRWITFSQSIISTLT
modifications: R4-7 on Cys 9 and Cys 76
notes: also called a new chemically modified IL2
Turning to B2, the “fold increase of binding” value in the experiment with IL2Rβ-Fc was determined as 1.35 fold.

B3: anti-PD-1 antibody 2 light chain Y32C (antibody, human IgG4 S228P, kappa, V domains shown)
VH: QVQLVESGGGVVQPGRSLRLDCKASGITFSNSGMHWVRQAPGKGLEWVAVIWYDGSKRYYADSVKGRFTISRDNSKNTLFLQMNSLRAEDTAVYYCATNDDYWGQGTLVTVSS
VL: EIVLTQSPATLSLSPGERATLSCRASQSVSSCLAWYQQKPGQAPRLLIYDASNRATGIPARFSGSGSGTDFTLTISSLEPEDFAVYYCQQSSNWPRTFGQGTKVEIKR
Turning to B3, the “binding activity vs wild type” value in the experiment with PD-1 [1] is under 70%.

B4: Niv-se007 (Nivolumab light chain Ser91Cys) (antibody, human IgG4 S228P, kappa, V domains shown)
VH: B3 VH
VL: B3 VL with C32Y, S91C
modifications: Cys at 91 carries the group named in the row
As to B4, in the experiment with PD-1 [2], the “Blocking efficiency of S47” value amounted to 25 fold.

B5: Beva-se001 conjugated to S47 (antibody, human IgG1, kappa, V domains shown)
VH: EVQLVESGGGLVQPGGSLRLSCAASGYTFTNYGMNWVRQAPGKGLEWVGWINTYTGEPTYAADFCRRFTFSLDTSKSTAYLQMNSLRAEDTAVYYCAKYPHYYGSSHWYFDVWGQGTLVTVSS
VL: DIQMTQSPSSLSASVGDRVTITCSASQDISNYLNWYQQKPGKAPKVLIYFTSSLHSGVPSRFSGSGSGTDFTLTISSLQPEDFATYYCQQYSTVPWTFGQGTKVEIKR
modifications: S47 on Cys 65
notes: Bevacizumab mutant
On to B5, for which the “Blocking efficiency of S47” value with His tagged VEGF protein stood at 9 fold.

B6: J43v2 TMEAbody (anti-mouse PD-1 antibody J43v2, Ser95 on LC) (antibody, mouse IgG2a, V domains shown)
VH: EVRLLESGGGLVKPEGSLKLSCVASGFTFSDYFMSWVRQAPGKGLEWVAHIYTKSYNYATYYSGSVKGRFTISRDDSRSMVYLQMNNLRTEDTATYYCTRDGSGYPSLDFWGQGTQVTVSS
VL: YELTQPPSASVNVGETVKITCSGDQLPKYFADWFHQRSDQTILQVIYDDNKRPSGIPERISGSSSGTTATLTIRDVRAEDEGDYYCFSGYVDSDCKLYVFGSGTQLTVLG
modifications: functional moiety on Cys 95 (which R1-R2-R3-R4 is not stated)
notes: Heavy chain re-formatted into mouse IgG2a
As to B6, in the experiment with mouse PD-1 protein, the “blocking efficiency (fold)” value stood at 35 fold.

B7: Pem-se007 (Pembrolizumab light chain Gly28Cys) (antibody, human IgG4 S228P, kappa, V domains shown)
VH: QVQLVQSGVEVKKPGASVKVSCKASGYTFTNYYMYWVRQAPGQGLEWMGGINPSNGGTNFNEKFKNRVTLTTDSSTTTAYMELKSLQFDDTAVYYCARRDYRFDMGFDYWGQGTTVTVSS
VL: EIVLTQSPATLSLSPGERATLSCRASKCVSTSGYSYLHWYQQKPGQAPRLLIYLASYLESGVPARFSGSGSGTDFTLTISSLEPEDFAVYYCQHSRDLPLTFGGGTKVEIKR
modifications: Cys at 28 carries the group named in the row
Regarding B7, the “Blocking efficiency of S47” value in experiment [3] was 8 fold.
